Experimental data: PMC6378725 (BMC Biotechnology, 2019)
Changes are numbered by the printed parent chain. In names and notes the source's numbering stands.

What was measured:
[1] = target: T1, HLA-A2 on stably transfected B721.221 cells (Homo sapiens, HLA-A*02:01, strain); test: flow cytometry on cells; 150,000 BLCL cells with various concentrations of purified mAbs in PBS 0.5% BSA, 30 min at room temperature; PE goat anti-human IgG; conditions: one partner purified
T1 construct: beta-2-microglobulin of the cells; also called 721.221(A2); B721.221 A2; source: B721.221 cells, stably transfected, on the cell surface; copies: + +

[2] = target: T2, HLA-A*02:01 on BLCL HEN cells (Homo sapiens, HLA-A*02:01, strain); test: as above; conditions: one partner purified
T2 construct: HLA-A*02:01 naturally expressed on BLCL HEN; beta-2-microglobulin of the cells; also called BLCL HEN expressing HLA-A2; source: endogenous, on BLCL HEN cells (HLA-A*02:01/ HLA-A*0101); copies: + +

[3] = target: T3, HLA-A*02:01 on a single antigen bead (Homo sapiens, HLA-A*02:01, strain); test: single antigen flow bead assay (Luminex); LabScreen single-antigen LS1A04 beads with 97 MHC class I alleles, Luminex 100 analyser; positivity threshold MFI 1000; conditions: both partners purified
T3 construct: beta-2-microglobulin; source: bought: One Lambda (LabScreen single-antigen LS1A04); copies: + +

Measured: binding result

B1: C4.4 (antibody, V domains shown)
VH: EVQLVESGAEVKKPGESLKISCKASGYRFTNYWIGWVRQMPGKGLEWMGIIYPYHSDTQYTPSFQGQVTISADESTTTAYLHLSSLKASDTAIYYCVRLRGDFVPVVFAPYFDSWGQGTLVT
VL: QSALTQPRSVSGSPGQSVTISCTGSRSDAHTFNYVSWYQQHPGKAPKLMICDVNQRPSGVPDRFSGSKSGDAASLTISGLQAEDEADYYCFSYDANYTLGVFGTGTKVTVL
notes: numbers count on: the heavy chain from the first amino acid of its leader peptide; human heavy chain constant domains of the IgG-AbVec expression vector; human lambda light chain constant domain of the Iglambda-AbVec expression vector; Only the heavy chain was mutated; also called cluster D74H//S80 T//W102 L//M112I//G121D//R124P
binds: [1] | [2] | [3]

B2: C4.18 (antibody, V domains shown)
VH: B1 VH with T61S
VL: B1 VL
notes: numbers count on: the heavy chain from the first amino acid of its leader peptide; human heavy chain constant domains of the IgG-AbVec expression vector; human lambda light chain constant domain of the Iglambda-AbVec expression vector; Only the heavy chain was mutated; also called cluster D74H//W102 L//M112I//G121D//R124P
binds: [1] | [2] | [3]
